Patent publication US20160200782A1 (MOERAE MATRIX, published 2016)

T1: DMPK(h) (human, UniProt Q09013 1-629, limits assumed)
T1 sequence (looked up): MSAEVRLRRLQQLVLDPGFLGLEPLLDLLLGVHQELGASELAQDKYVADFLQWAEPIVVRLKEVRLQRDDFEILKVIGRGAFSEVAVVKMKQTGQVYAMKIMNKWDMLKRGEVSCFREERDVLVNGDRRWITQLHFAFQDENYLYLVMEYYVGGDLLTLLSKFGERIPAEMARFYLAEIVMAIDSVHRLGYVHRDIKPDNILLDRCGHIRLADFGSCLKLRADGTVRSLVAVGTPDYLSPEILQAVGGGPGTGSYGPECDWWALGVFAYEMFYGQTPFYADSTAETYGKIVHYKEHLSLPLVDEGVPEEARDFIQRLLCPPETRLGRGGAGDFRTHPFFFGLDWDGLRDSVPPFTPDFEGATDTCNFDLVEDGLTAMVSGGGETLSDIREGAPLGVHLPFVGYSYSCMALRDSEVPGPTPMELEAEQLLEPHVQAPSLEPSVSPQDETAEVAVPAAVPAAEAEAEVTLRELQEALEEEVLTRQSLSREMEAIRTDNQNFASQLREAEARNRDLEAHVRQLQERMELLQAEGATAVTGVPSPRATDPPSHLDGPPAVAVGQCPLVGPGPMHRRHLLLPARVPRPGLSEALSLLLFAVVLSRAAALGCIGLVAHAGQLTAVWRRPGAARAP

T2: NEK2(h) (human, UniProt P51955 1-445, limits assumed)
T2 sequence (looked up): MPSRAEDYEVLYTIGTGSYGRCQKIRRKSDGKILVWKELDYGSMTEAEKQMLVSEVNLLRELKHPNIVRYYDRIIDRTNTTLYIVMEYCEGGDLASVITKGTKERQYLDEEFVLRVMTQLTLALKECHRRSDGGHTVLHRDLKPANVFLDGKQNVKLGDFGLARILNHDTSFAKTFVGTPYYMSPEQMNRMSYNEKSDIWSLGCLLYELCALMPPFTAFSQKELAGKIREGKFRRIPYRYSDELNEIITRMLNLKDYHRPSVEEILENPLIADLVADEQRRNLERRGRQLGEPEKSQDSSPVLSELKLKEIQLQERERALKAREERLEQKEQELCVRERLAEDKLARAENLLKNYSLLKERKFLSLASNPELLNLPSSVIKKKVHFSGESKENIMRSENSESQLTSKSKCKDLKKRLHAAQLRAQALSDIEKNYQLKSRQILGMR

T3: SGK3(h) (human, UniProt Q96BR1 1-496, limits assumed)
T3 sequence (looked up): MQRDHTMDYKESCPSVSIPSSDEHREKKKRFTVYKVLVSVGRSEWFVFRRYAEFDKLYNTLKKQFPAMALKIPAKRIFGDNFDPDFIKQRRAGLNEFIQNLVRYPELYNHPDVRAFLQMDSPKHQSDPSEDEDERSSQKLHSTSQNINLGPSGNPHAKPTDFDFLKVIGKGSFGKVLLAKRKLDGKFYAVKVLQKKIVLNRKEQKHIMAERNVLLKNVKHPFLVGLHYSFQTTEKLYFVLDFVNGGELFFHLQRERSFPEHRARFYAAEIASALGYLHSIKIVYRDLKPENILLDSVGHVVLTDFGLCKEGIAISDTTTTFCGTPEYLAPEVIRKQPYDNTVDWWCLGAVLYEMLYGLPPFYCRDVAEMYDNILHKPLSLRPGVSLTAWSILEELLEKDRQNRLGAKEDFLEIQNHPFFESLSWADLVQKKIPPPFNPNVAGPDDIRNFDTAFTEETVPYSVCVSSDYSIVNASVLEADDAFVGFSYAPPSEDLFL

T4: MST2(h) (human, UniProt Q13188 1-491, limits assumed)
T4 sequence (looked up): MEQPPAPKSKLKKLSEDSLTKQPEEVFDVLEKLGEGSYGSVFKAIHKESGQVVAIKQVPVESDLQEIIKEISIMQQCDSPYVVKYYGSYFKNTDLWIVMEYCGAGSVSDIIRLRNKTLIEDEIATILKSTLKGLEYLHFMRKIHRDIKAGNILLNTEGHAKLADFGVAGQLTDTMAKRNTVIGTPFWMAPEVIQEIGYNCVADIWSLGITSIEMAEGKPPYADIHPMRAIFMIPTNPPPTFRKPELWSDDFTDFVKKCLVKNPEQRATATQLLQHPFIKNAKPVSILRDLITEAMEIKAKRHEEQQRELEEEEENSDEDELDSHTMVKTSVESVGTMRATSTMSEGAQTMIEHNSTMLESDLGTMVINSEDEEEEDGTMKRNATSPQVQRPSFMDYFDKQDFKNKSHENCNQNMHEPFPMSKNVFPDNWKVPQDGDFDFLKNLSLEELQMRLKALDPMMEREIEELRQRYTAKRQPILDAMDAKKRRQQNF


What was measured:
Assay in all cases: cell-based or functional assay
[1] = molecular target: Pyk2(h) (human, UniProt Q14289 1-1009, limits assumed)
[2] = molecular target: T1, DMPK(h)
[3] = molecular target: EGFR(h) (human, UniProt P00533 696-1210, limits assumed)
[4] = molecular target: T2, NEK2(h)
[5] = molecular target: JNK1α1(h) (human, UniProt P45983-2 1-384)
[6] = molecular target: PDGFRα(h) (human, UniProt P16234 550-1089, limits assumed)
[7] = molecular target: T3, SGK3(h)
[8] = molecular target: Tie2(Y897S)(h) (human, UniProt Q02763 771-1124, limits assumed)
[9] = molecular target: T4, MST2(h)
[10] = molecular target: CLK3(h) (human, UniProt P49761 1-490, limits assumed)
Further: test concentration or dose not given here.

Chain of Tie2(Y897S)(h) (Q02763 771-1124 Y897S limits assumed): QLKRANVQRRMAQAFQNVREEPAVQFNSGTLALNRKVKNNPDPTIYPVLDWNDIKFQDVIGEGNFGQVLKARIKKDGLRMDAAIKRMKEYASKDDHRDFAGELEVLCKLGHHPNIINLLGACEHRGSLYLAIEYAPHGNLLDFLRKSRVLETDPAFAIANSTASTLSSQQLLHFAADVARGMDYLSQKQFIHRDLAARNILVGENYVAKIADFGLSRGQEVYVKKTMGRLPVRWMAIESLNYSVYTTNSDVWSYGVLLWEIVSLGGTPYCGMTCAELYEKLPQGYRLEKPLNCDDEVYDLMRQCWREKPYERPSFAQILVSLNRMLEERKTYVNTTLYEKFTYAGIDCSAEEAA
Chain of Pyk2(h) (Q14289 whole entry): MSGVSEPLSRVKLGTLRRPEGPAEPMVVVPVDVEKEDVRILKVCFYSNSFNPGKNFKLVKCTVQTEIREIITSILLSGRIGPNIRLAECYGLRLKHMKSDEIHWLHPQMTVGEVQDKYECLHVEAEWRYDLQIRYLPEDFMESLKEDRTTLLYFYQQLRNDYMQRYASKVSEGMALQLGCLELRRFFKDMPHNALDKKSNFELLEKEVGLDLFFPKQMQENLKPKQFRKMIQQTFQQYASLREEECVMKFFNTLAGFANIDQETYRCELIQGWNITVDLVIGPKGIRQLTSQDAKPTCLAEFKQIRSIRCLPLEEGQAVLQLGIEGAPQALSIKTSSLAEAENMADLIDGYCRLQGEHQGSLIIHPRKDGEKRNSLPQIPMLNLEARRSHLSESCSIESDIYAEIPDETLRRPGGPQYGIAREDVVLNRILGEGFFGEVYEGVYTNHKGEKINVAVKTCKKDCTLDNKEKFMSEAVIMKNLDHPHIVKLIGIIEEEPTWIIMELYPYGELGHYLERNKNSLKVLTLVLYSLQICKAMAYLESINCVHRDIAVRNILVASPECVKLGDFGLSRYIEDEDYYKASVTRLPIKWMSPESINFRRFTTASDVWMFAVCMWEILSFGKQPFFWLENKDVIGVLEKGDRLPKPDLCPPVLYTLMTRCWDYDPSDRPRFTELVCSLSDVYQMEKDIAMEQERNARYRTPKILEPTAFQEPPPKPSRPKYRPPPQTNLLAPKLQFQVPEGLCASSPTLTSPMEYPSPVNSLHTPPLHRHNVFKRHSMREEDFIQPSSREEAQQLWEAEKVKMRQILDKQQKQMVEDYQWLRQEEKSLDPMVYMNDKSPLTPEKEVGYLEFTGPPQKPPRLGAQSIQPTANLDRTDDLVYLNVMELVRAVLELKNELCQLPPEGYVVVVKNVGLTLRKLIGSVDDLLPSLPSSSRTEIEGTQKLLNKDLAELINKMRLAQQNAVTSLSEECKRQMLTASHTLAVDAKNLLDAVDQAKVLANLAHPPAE
Chain of JNK1α1(h) (P45983 other isoform, or with tags, fused parts or gaps limits assumed): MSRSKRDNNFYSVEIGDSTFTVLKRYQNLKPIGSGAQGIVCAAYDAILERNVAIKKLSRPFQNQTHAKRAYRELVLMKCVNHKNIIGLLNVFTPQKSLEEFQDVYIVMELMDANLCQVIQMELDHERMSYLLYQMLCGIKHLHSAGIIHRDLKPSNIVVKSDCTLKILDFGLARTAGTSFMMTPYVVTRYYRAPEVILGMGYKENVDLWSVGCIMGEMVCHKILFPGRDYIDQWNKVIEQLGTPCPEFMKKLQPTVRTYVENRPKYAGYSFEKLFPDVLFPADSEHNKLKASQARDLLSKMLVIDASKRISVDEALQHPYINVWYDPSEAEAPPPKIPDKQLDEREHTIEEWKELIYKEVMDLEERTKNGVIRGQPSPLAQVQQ
Chain of CLK3(h) (P49761 whole entry): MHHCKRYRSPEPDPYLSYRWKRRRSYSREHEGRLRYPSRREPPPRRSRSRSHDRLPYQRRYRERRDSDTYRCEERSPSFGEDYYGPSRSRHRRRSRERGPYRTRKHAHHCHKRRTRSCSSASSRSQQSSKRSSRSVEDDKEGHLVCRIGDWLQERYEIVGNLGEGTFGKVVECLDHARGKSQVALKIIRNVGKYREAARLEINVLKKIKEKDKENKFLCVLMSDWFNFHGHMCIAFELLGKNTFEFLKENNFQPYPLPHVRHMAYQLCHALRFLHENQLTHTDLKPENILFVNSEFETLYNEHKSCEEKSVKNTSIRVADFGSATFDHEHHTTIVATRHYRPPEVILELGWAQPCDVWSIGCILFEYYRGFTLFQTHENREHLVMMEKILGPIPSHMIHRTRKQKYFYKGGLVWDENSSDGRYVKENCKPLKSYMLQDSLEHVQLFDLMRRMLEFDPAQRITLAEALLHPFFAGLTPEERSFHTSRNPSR
Chain of PDGFRα(h) (P16234 550-1089 limits assumed): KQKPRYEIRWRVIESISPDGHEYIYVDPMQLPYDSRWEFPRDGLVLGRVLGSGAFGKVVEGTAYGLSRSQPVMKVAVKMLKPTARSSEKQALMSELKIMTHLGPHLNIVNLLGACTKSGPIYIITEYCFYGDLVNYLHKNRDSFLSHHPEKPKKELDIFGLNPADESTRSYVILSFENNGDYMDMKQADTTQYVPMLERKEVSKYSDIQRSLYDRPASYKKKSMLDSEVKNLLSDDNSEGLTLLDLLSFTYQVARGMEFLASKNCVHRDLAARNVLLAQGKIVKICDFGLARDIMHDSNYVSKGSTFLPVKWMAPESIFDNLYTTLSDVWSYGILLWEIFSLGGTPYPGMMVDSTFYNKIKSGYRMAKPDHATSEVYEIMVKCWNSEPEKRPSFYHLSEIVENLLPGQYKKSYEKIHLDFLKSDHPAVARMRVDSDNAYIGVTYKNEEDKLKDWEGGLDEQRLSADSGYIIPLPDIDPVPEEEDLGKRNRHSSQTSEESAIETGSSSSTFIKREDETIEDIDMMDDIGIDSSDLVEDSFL

Row | Binder | % activity [1] [%] | % activity [2] [%] | % activity [3] [%] | % activity [4] [%] | % activity [5] [%] | % activity [6] [%] | % activity [7] [%] | % activity [8] [%] | % activity [9] [%] | % activity [10] [%]
1 | KAFAKLAARLYRKALARQLGVAA [MMI-0400] | 34 | 54 | 16 | 61 | 98 | 40 | 8 | 87 | 11 | 84
2 | FAKLAARLYRKALARQLGVAA [MMI-0300] | 47 | 59 | 21 | 78 | 97 | 65 | 10 | 83 | 19 | 61
